Measurements taken from the MegaScale stability set (Tsuboyama et al. 2023).

B1: 2K2A (parent)
chain: ELREAFRLYDKEGNGYISTDVMREILAELDETLSSEDLDAMIDEIDADGSGTVDFEEFMGVMT

Variants of: B1
Assay: folding stability dG (cDNA display proteolysis); higher = more stable
Conditions: PBS, room temperature

| Variant | folding stability dG [kcal/mol] |
| --- | --- |
| ELREAFRLYDKEGNGYISTDVMREILAELDETLISEDLDAMIDEIDADGSGTVDFEEFMGVMT [S34I] | 0.894 |
| ELREAFRLYDKEGNGYISTDVMREILAELDETLRSEDLDAMIDEIDADGSGTVDFEEFMGVMT [S34R] | 1.47 |
| ELREAFRLYDKEGNGYISTDVMREILAELDETLSSEDLDAMIDEIDADASGTVDFEEFMGVMT [G49A] | 1.5 |
| ELREAFRLYDKEGNGYISTDVMREILAELDETLSSEDLDAMIDEIDADFSGTVDFEEFMGVMT [G49F] | 1.01 |
| ELREAFRLYDKEGNGYKSTDVMREILAELDETLSSEDLDAMIDEIDADGSGTVDFEEFMGVMT [I17K] | -0.854 |
| VLREAFRLYDKEGNGYISTDVMREILAELDETLSSEDLDAMIDEIDADGSGTVDFEEFMGVMT [E1V] | 1.98 |
| ELREAFRLYDKEGNGYISTDVMREILAELDETLSSEDLDAMIDEIDADGSGTVDREEFMGVMT [F55R] | 0.375 |
| ELREAFRLYDKEGNGYISTDVMREILAELDETLSSEDLDAMIDEIDADGSGTVDCEEFMGVMT [F55C] | 0.683 |
| ELREAYRLYDKEGNGYISTDVMREILAELDETLSSEDLDAMIDEIDADGSGTVDFEEFMGVMT [F6Y] | 0.586 |
| ELREAFRLYDKEGNGYISTDVMREILAELDETLSSEDLDAMIDEIIADGSGTVDFEEFMGVMT [D46I] | 0.796 |
| ELREAFRLYDKEGNGYISTDVMREILAELDETLSSEDLDAMIDEIHADGSGTVDFEEFMGVMT [D46H] | 0.812 |
| ELREAFRLYDKEGNGYISTDVMREILAELDETLSSEDLDAMIDEIDADGSGTVDFEEFMGPMT [V61P] | 0.265 |
| ELREAFRLYDKEGNGYISTDVMREILAELDETLSSEDLDAMIDEIDADGSGTVDFEEFMGQMT [V61Q] | 0.902 |
| ELREAFRLYDKEGRGYISTDVMREILAELDETLSSEDLDAMIDEIDADGSGTVDFEEFMGVMT [N14R] | 2.11 |
| ELREAFRLYDKEGNGYISTDVMREILAELDETLSSEDLDAMIDEIDIDGSGTVDFEEFMGVMT [A47I] | 1.86 |
| ELREAFRLYDKEGNGYISTDVMREILAELDETLSSEDLDAMIDEIDTDGSGTVDFEEFMGVMT [A47T] | 1.84 |
| ELREAFRLYDKEGNGYISTDVMREILAELDETLSSEDLDAMIDEIDADGSGHVDFEEFMGVMT [T52H] | 1.69 |
| ELREAFRLYDKEGNGYISTDVMREILAELDETLSSEDLDAMIDEIDADGSGDVDFEEFMGVMT [T52D] | 0.729 |
| ELKEAFRLYDKEGNGYISTDVMREILAELDETLSSEDLDAMIDEIDADGSGTVDFEEFMGVMT [R3K] | 1.86 |
| ELREAFRLYDKEGNGYISTDVMREILAELDETESSEDLDAMIDEIDADGSGTVDFEEFMGVMT [L33E] | -0.382 |
| ELREAFRLYDKEGNGYISTDVMREILAELDETHSSEDLDAMIDEIDADGSGTVDFEEFMGVMT [L33H] | 0.717 |
| ELREAFRLYDKEGNGYISTDVMREILAELDETDSSEDLDAMIDEIDADGSGTVDFEEFMGVMT [L33D] | -0.084 |

| Variant | folding stability dG [kcal/mol] |
| --- | --- |
| ELREAFRLYDKEGNGYISTDVMREILAELDETLSSEDLDEMIDEIDADGSGTVDFEEFMGVMT [A40E] | 1.51 |
| ELREAFRLYDKEGNGYISTDVMREILAELDETLSSEDLDAMIDEIDADGSGTVDFEEFMGVMV [T63V] | 1.82 |
| ELREAFRLYDKEGNGYISTDVMREILAELDETLSSEDLDAMIDEIDADGSGTVDFEEFMGVMA [T63A] | 1.97 |
| ELREAFRLYDKEGNGYINTDVMREILAELDETLSSEDLDAMIDEIDADGSGTVDFEEFMGVMT [S18N] | 1.16 |
| ELREAFRLYDKEGNGYIITDVMREILAELDETLSSEDLDAMIDEIDADGSGTVDFEEFMGVMT [S18I] | 0.865 |
| ELREAFRLYDKEGNGYISTDVMREILAELDETLSSEDLDAMIDEIDADGSGTVDFEEFNGVMT [M59N] | 0.889 |
| ELREAFRLYDKEGNGYISTDVMREILAELDETLSSEDLDAMIDEIDADGSGTVDFEEFIGVMT [M59I] | 2.03 |
| ELREAFRLYDKEGNGYISTDVMREILAELDETLSSEDLDAMIDEIDADGSGTVDFEHFMGVMT [E57H] | 2.18 |
| ELREAFRLYDKEGNGYISTDVMREILAELDETLSSEDLDAMIDEIDADGSGTVDFEFFMGVMT [E57F] | 1.47 |
| ELREAFRLYDKEGNGYISTDVMREILAELDETLSSEDLDAMIDEIDADGSGTVDFECFMGVMT [E57C] | 2.01 |
| ELREAFRLYDKEGNGYISTDVMREILAELDETLSSENLDAMIDEIDADGSGTVDFEEFMGVMT [D37N] | 1.32 |
| ELREAFRLYDKEGNGCISTDVMREILAELDETLSSEDLDAMIDEIDADGSGTVDFEEFMGVMT [Y16C] | 0.627 |
| ELREAFRLYDKEGNGTISTDVMREILAELDETLSSEDLDAMIDEIDADGSGTVDFEEFMGVMT [Y16T] | 1.05 |
| ELREAFRLYDKEGNGPISTDVMREILAELDETLSSEDLDAMIDEIDADGSGTVDFEEFMGVMT [Y16P] | -0.96 |
| ELREAFRLYDKEGNGYISTDVMREILAELDETLSSEDLDAMIDEIDADGSGTVDFEEIMGVMT [F58I] | 0.406 |
| ELREAFRLYDKEGNGYISTDVMREILAELDKTLSSEDLDAMIDEIDADGSGTVDFEEFMGVMT [E31K] | 2.34 |
| ELREAFRLYDKEGNGYISTDVMREILAELDQTLSSEDLDAMIDEIDADGSGTVDFEEFMGVMT [E31Q] | 2.2 |
| ELREAFRLYDKEGNGYISTDVMREILAELDETLSSEDLDAMIDENDADGSGTVDFEEFMGVMT [I45N] | -0.113 |
| ELRYAFRLYDKEGNGYISTDVMREILAELDETLSSEDLDAMIDEIDADGSGTVDFEEFMGVMT [E4Y] | 1.43 |
| ELREAFRLYDKEGNGYISTDVMREILAELDETLSSEDLDAMIDEIDADGSGTVIFEEFMGVMT [D54I] | 1.27 |
| ELREAFRLYDKEGNGYISTDVMREILAELDETLSSEDLDAMIDEIDADGSTTVDFEEFMGVMT [G51T] | 0.424 |
